Measured values as given in article PMC9897471.
Read-outs that look alike come from different tables or passages of the source.

How the values were obtained:
GST-BRCA1 BRCT WT [1] = target: T1, GST-BRCA1 BRCT WT (UniProt P38398 1582-1863); assay: EMSA
GST-BRCA1 BRCT WT [2] = target: T1, GST-BRCA1 BRCT WT; assay: EMSA; remark: listed apart in the source

T1 sequence (P38398 1582-1863): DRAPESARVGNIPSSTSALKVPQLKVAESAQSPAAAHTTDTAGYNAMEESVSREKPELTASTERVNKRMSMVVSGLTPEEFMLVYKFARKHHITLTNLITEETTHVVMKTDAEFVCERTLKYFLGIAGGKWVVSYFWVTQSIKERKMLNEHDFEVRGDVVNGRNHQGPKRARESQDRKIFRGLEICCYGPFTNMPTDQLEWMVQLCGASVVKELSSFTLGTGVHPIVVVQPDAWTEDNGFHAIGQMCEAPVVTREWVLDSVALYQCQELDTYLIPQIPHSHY

B1: non-rDNA bottom ssDNA (ssDNA)
DNA: ATCCCAGCACCAGATTCAGCAATTAAGCTCTAAGCCATGAATTCAAATGACCTCTTATCA
binding result (GST-BRCA1 BRCT WT [1]): binds

B2: non-rRNA bottom ssRNA (ssRNA)
RNA: AUCCCAGCACCAGAUUCAGCAAUUAAGCUCUAAGCCAUGAAUUCAAAUGACCUCUUAUCA
binding result (GST-BRCA1 BRCT WT [2]): binds

B3: non-rRNA dsRNA (bottom/top) (dsRNA)
RNA 1: B2 RNA
RNA 2: UGAUAAGAGGUCAUUUGAAUUCAUGGCUUAGAGCUUAAUUGCUGAAUCUGGUGCUGGGAU
binding result (GST-BRCA1 BRCT WT [2]): no binding
